Reference: patent US6183121

Experiments:
[1] = target: HCV NS3 full-length (wild type) (Hepatitis C virus) (UniProt P26664)
[2] = target: HCV NS3 helicase domain (wild type) (Hepatitis C virus) (UniProt P26664); details: poly(U)-stimulated ATPase; 50 mM MOPS pH 7.0, 0.5 mM MgCl2, 37 C
[3] = target: HCV NS3 helicase domain (wild type) (Hepatitis C virus) (UniProt P26664); details: requires ATP and Mn2+ or Mg2+; 25 mM MOPS pH 6.5, 1 mM ATP, 0.5 mM MnCl2, 37 C
[4] = target: HCV NS3 helicase domain (wild type) (Hepatitis C virus) (UniProt P26664); assay: filter; details: 25 mM MOPS pH 7.0, 2 mM DTT, 30 C; 0.445 RNA per helicase molecule; koff 1.52e-2 min-1
[5] = target: HCV NS3 full-length (wild type) (Hepatitis C virus) (UniProt P26664); assay: filter; details: reference

For poly(U), which activity (% of basal WT ATPase) ([1]; poly(U)-stimulated ATPase) is on record?
The activity (% of basal WT ATPase) was 581.

And the activity (% of basal WT ATPase) [2]?
Its activity (% of basal WT ATPase) is 823.

Which results are given for “3'-tailed 98-nt RNA / 34-nt DNA hybrid (pSP65 BsrBI transcript; pSP64 release strand)”?
activity (% of WT unwinding) ([1]; reference): 100; activity (% of WT unwinding) [3]: 100

Which Kd [4] does the source give for “34-nt ssRNA (SP6 transcript of BamHI-digested pSP64)” here?
The Kd was 5.18 nM.

What about the binding signal [5] of the same substance?
Its binding signal is 100 % of WT.
